Series [1] relates to T1, hBVR-derived substrate peptide GLKRNRYLSFHFK (hBVR aa222-234).
T1 sequence: GLKRNRYLSFHFKS

Series [2] deals with T2, variant peptide GLKRNRYLAFHFK
T2 sequence: GLKRNRYLAFHFK

Series [3] concerns T3, variant peptide GLKRNRYLAFHFKSGSL
T3 sequence: GLKRNRYLAFHFKSGSL

For series [4], the target named is active recombinant human PKC-δ kinase (as a GST fusion protein), Q05655.
active recombinant human PKC-δ kinase (as a GST fusion protein), Q05655, sequence (Q05655 whole entry, looked up, stated change not applied, the tested form may be a part): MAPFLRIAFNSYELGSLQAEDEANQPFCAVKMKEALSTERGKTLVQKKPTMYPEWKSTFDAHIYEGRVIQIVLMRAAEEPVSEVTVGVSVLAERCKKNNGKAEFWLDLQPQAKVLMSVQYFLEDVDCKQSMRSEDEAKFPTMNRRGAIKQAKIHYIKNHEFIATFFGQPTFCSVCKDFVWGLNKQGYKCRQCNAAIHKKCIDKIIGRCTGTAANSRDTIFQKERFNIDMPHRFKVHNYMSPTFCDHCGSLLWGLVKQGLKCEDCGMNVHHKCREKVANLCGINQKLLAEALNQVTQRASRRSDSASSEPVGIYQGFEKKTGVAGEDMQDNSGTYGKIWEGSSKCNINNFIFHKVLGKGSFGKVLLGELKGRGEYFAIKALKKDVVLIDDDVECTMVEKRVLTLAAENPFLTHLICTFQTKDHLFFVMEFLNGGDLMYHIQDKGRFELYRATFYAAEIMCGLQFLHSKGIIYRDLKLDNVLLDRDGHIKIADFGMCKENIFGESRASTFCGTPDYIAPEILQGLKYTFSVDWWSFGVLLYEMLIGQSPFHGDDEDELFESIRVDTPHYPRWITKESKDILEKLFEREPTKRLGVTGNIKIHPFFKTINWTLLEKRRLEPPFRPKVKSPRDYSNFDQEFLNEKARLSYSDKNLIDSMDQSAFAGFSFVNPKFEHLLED

As for recombinant PKC-βII, in series [1], the “Km (phosphorylation of the peptide, in vitro kinase assay, Michaelis-Menten fit)” value (“Km” for short) is listed as “Km 14.03 µM”.

Regarding recombinant PKC-ζ, the “Km” value in series [1] is on record as “Km 6.89 µM”.

Consider “active recombinant human PKC-δ kinase (as a GST fusion protein)”, for which the “phosphorylation of the peptide by PKC-δ (kinase assay, FIG. 4C)” value in series [2] is “A variant peptide in which the target serine was replaced by alanine was, as expected, not a substrate for the kinase”; in series [3], “As with the shorter peptide, the replacement of serine with alanine markedly decreased phosphorylation of the peptide”. In addition, the “Km” value in series [1] was “Km of 1.59±0.58 µM”.

B1: GST-hBVR fusion protein (protein)
chain: MNAEPERKFGVVVVGVGRAGSVRMRDLRNPHPSSAFLNLIGFVSRRELGSIDGVQQISLEDALSSQEVEVAYICSESSSHEDYIRQFLNAGKHVLVEYPMTLSLAAAQELWELAEQKGKVLHEEHVELLMEEFAFLKKEVVGKDLLKGSLLFTSDPLEEDRFGFPAFSGISRLTWLVSLFGELSLVSATLEERKEDQYMKMTVCLETEKKSPLSWIEEKGPGLKRNRYLSFHFKSGSLENVPNVGVNKNIFLKDQNIFVQKLLGQFSEKELAAEKKRILHCLGLAEEIQKYCCSRK
With B1, in series [4], the “PKC-δ autophosphorylation, phosphorylation of hBVR and kinase activity toward MBP (in vitro kinase assay)” value was “resulted in phosphorylation of hBVR concomitant with an enhanced PKC-δ autophosphorylation (FIG. 1A), and increased kinase activity toward the substrate, MBP (FIG. 1B)”.
